Assay results published in article PMC5670330.

Target: GFP-SR-BI (scavenger receptor BI) on CHO cells (UniProt Q8WTV0)
UniProt Q8WTV0, sequence (Q8WTV0 whole entry): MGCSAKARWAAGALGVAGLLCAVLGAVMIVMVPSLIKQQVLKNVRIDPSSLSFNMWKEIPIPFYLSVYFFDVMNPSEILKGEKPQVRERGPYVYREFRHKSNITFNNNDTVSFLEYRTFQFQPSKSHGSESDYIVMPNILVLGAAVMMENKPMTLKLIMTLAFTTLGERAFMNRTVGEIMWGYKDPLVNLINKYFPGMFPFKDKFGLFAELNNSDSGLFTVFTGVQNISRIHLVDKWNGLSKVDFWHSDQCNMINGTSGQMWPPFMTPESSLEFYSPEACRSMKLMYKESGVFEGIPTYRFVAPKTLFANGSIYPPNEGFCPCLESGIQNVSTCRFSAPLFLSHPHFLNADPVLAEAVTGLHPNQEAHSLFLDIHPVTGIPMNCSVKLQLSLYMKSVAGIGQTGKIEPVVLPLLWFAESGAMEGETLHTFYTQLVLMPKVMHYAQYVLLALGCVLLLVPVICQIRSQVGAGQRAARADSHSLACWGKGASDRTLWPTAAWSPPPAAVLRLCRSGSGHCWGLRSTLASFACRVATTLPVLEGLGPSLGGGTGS

AF568-HDL internalization by HCCMECs after pre-treatment with 10 ug/mL blocking anti-SR-BI scFv (percent decrease): 57%
Substance: Alexa Fluor 568 labeled human high-density lipoprotein (from UniProt P02647 19-267) (complex)
